{"source": "paper PMC1450327", "about": "“Crystal Structure of the HSV-1 Fc Receptor Bound to Fc Reveals a Mechanism for Antibody Bipolar Bridging” (PLoS Biology, 2006)", "binders": {"B1": {"name": "C-terminal domain of the gE ectodomain (CgE), HSV-1 gE residues 213-390 (domain or fragment)", "chain": "APEVSHVRGVTVRMETPEAILFSPGETFSTNVSIHAIAHDDQTYSMDVVWLRFDVPTSCAEMRIYESCLYHPQLPECLSPADAPCAASTWTSRLAVRSYAGCSRTNPPPRCSAEAHMEPVPGLAWQAASVNLEFRDASPQHSGLYLCVVYVNDHIHAWGHITISTAAQYRNAVVEQPL", "modifications": "secreted from High 5 insect cells; disulfides Cys271-Cys297, Cys280-Cys289 and Cys314-Cys323 (gE numbering = entity position + 211); C-terminal Factor Xa site and 6xHis left out"}}, "molecular_target": "T1, wild-type Fc (wtFc), recombinant Fc fragment of human IgG1 (human)", "T1 construct": "human IgG1 heavy chain constant region, Fc fragment, residues 223-447; also called IgG Fc", "assay": "SPR; BIAcore 2000; wtFc amine-coupled to a CM5 chip (440 RU); CgE injected, three-fold dilutions from 30 μM to 5 nM; pH 8 (50 mM HEPES pH 8.0, 150 mM NaCl, 3 mM EDTA, 0.005% P-20); equilibrium response fitted to a single-site model", "details": "both partners purified", "data": [{"binder": "B1", "values": [{"measurement": "Kd", "value": "~7", "unit": "µM"}]}]}
